± gives the uncertainty stated by the source.
Assay: self-splicing fitness, log relative to wild type (ln ratio); higher = more splicing; Tetrahymena group I intron in knt gene, E. coli kanamycin selection, DiMSum; sequences stand for … in CUCUCU…GGAGGGAAAAGUUAUCAGGCAUGCACCUGGUAGCUAGUCUUUAAACCAAUAGAUUGCAUCGGUUUAAAAGGCAAGACCGUCAAAUUGCGGGAAAGGGGUCAACAGCCGUUCAGUACCAAGUCUCAGGGGAAACUUUGAGAUGGCCUUGCAAAGGGUAUGGUAAUAAGCUGACGGACAUGGUCCUAACCACGCAGCCAAGUCCUAAGUCAACAGAUCUUCUGUUGAUAUGGAUGCAGUUCACAGACUAAAUGUCGGUCGGGGAAGAUGUAUUCUUCUCAUAAGAUAUAGUCGGACCUCUCCUUAAUGGGAGCUAGCGGAUGAAGUGAUGCAACACUGGAGCCGCUGGGAACUAAUUUGUAUGCGAAAGUAUAUUGAUUAGUUUUGGAGUACUCGUGGUCG
Procedure, shortened: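 Fitness was computed with DiMSum as the error-weighted combination of replicate fold changes, kanamycin versus none, each normalised to wild type. The library randomised all eight intron nucleotides of the P1ex region, with the intron placed in the knt kanamycin-resistance gene on pET-22b(+) in E. coli BL21(DE3). Six replicate transformations were grown overnight at 37°C or 30°C on LB agar with or without 25 μg/mL kanamycin, plus 100 μg/mL carbenicillin, 50 μM IPTG and 0.2% rhamnose. Pooled colonies were amplicon-sequenced on an Illumina HiSeq 2500.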

| Sequence | self-splicing fitness (ln) (30 °C) | self-splicing fitness (ln) (37 °C) |
| --- | --- | --- |
| ACAAAGCAAUAUUACGUCGU | -2.74 ± 0.093 | -2.05 ± 0.12 |
| ACGAAGCAAUAUUACGCGCC | -0.967 ± 0.1 | 0.356 ± 0.14 |
| AUGCAGCAAUAUUACGCACU | -0.148 ± 0.12 | 0.309 ± 0.16 |
| AGUCAGCAAUAUUACGCAUU | -0.401 ± 0.069 | -0.421 ± 0.085 |
| CUCGAGCAAUAUUACGCCAC | -2.89 ± 0.43 | -1.24 ± 0.43 |
| CUCUAGCAAUAUUACGCAUG | -4.85 ± 0.41 | -3.07 ± 0.3 |
| GCGAAGCAAUAUUACGUCUU | -2.56 ± 0.15 | -2.06 ± 0.13 |
| CAACAGCAAUAUUACGGGCA | -2.61 ± 0.1 | -1.9 ± 0.12 |
| GACUAGCAAUAUUACGUUAA | -2.16 ± 0.12 | -0.716 ± 0.11 |
| AAGUAGCAAUAUUACGUGCG | -1.48 ± 0.12 | -0.495 ± 0.15 |
| CGUGAGCAAUAUUACGCGUC | -3.12 ± 0.31 |  |
| GAUAAGCAAUAUUACGGUGU | -2.61 ± 0.12 | -1.59 ± 0.11 |
| GCGUAGCAAUAUUACGGCGA | -0.0106 ± 0.13 | 0.378 ± 0.16 |
| GCAGAGCAAUAUUACGUAAU | -2.29 ± 0.21 | -1.95 ± 0.35 |
| UUCUAGCAAUAUUACGAAGG | -2.9 ± 0.19 | -2.38 ± 0.39 |
| UAACAGCAAUAUUACGCGAA | -1.9 ± 0.11 | -0.949 ± 0.11 |
| UCGGAGCAAUAUUACGGAGC |  | -1.64 ± 0.4 |
| UAUUAGCAAUAUUACGCGUG | -0.538 ± 0.055 | -0.463 ± 0.065 |
| AGACAGCAAUAUUACGUACG | -1.22 ± 0.07 | -0.121 ± 0.094 |

| Sequence | self-splicing fitness (ln) (30 °C) | self-splicing fitness (ln) (37 °C) |
| --- | --- | --- |
| CUAAAGCAAUAUUACGGUAA | -3.53 ± 0.15 | -2.36 ± 0.18 |
| ACUCAGCAAUAUUACGGCAU | -0.665 ± 0.063 | -0.293 ± 0.067 |
| CUUCAGCAAUAUUACGGAGU | -3.27 ± 0.15 | -3.23 ± 0.28 |
| UGCAAGCAAUAUUACGCUCG | -3.78 ± 0.27 | -1.83 ± 0.2 |
| UCGAAGCAAUAUUACGGGUG | -0.763 ± 0.083 | -0.756 ± 0.097 |
| AAUCAGCAAUAUUACGUCAA | -0.952 ± 0.077 | -0.614 ± 0.1 |
| AAAGAGCAAUAUUACGAGAU | -3.95 ± 0.17 | -3.28 ± 0.22 |
| CUUCAGCAAUAUUACGGACU | -2.26 ± 0.16 | -2.66 ± 0.27 |
| AGGCAGCAAUAUUACGGUAA | -2.35 ± 0.088 | -1.75 ± 0.076 |
| GAUCAGCAAUAUUACGGUCA | -1.6 ± 0.14 | -0.459 ± 0.1 |
| CAAAAGCAAUAUUACGUGUG | -2.48 ± 0.055 | -1.09 ± 0.059 |
| UCCAAGCAAUAUUACGAUUA | -0.942 ± 0.11 | -0.817 ± 0.11 |
| GUGGAGCAAUAUUACGCCAA | -2.82 ± 0.33 | -0.536 ± 0.33 |
| AAUAAGCAAUAUUACGGGGA | -3.01 ± 0.21 | -1.42 ± 0.16 |
| AAGUAGCAAUAUUACGUAAG | -2.48 ± 0.13 | -1.43 ± 0.14 |
| CACAAGCAAUAUUACGGUGC | -3.25 ± 0.2 | -2.72 ± 0.24 |
| GCCUAGCAAUAUUACGGCGG | -3.45 ± 0.24 | -2.44 ± 0.35 |
| GCUGAGCAAUAUUACGUUCG | -2.34 ± 0.12 | -1.17 ± 0.12 |
| ACGUAGCAAUAUUACGUUUU | -2.63 ± 0.12 | -1.15 ± 0.12 |
